Measurements: paper PMC3792046 (PLoS ONE, 2013)

Columns and labels:
SB105-A10-PEG-biotin = experiment: SPR; BIAcore X100; biotinylated SB105-A10 immobilised on SA streptavidin sensorchip (560 RU, 0,12 pmol/mm^2); gp41 (0.61-10 nM) or gp120 (12.5-100 nM) injected in HBS-EP (10 mM HEPES pH 7.4, 150 mM NaCl, 3 mM EDTA, 0.005% surfactant P20), 3 min association, 10 min wash; streptavidin-alone surface for blank subtraction; steady-state affinity from RU at equilibrium
gp120 = settings: ref [71], [72]; cited from earlier work

| Substance | Kd (SB105-A10-PEG-biotin) [nM] | recognition of positively charged regions on gp120 (gp120) |
| --- | --- | --- |
| HIV-1 glycosilated recombinant gp41 ectodomain (amino acids 546-682) (from UniProt P04578 546-682) (domain or fragment) | 3.9 | – |
| cellulose sulfate | – | recognize positively charged regions on gp120 |
